From article PMC4105210 (Nature communications, 2014)
Residue numbers refer to the chain shown, from its start. Numbers in names are those of the source.

Columns and labels:
[1] = biological target: T1, HSV-1 UL31Δ50 (residues 51-306) (HSV-1 strain F, UniProt P10215 51-306); assay: SEC
T1 sequence: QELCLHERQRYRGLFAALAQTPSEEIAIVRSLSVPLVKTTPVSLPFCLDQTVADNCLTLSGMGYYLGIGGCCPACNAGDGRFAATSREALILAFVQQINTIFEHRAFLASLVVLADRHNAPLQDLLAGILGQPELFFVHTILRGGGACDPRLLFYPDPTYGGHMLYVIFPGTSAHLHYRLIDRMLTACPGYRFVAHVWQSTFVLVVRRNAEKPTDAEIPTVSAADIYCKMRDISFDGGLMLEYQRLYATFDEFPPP

[2] = biological target: T2, HSV-1 UL31, full length (residues 1-306) (HSV-1 strain F, UniProt P10215 1-306); assay: co-purification
T2 sequence: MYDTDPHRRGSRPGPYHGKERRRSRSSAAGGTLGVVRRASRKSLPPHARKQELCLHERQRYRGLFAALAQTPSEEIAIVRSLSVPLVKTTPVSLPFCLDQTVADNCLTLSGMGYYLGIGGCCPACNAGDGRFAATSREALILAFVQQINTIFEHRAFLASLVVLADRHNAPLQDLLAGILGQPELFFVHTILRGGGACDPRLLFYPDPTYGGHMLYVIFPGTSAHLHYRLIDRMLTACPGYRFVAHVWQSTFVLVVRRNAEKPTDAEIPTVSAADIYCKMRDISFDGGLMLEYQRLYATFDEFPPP

[3] = biological target: T2, HSV-1 UL31, full length (residues 1-306); assay: SEC
cross-linking = biological target: the molecule itself; assay: cross-linking
cryo-EM structure = biological target: the molecule itself; assay: cryo-EM structure

B1: HSV-1 UL34(1-220) (domain or fragment)
chain: MAGLGKPYTGHPGDAFEGLVQRIRLIVPSTLRGGDGEAGPYSPSSLPSRCAFQFHGHDGSDESFPIEYVLRLMNDWAEVPCNPYLRIQNTGVSVLFQGFFHRPHNAPGGAITPERTNVILGSTETTGLSLGDLDTIKGRLGLDARPMMASMWISCFVRMPRVQLAFRFMGPEDAGRTRRILCRAAEQAITRRRRTRRSREAYGAEAGLGVAGTGFRARGD
B1: binds [1]; binds [2].

B2: HSV-1 UL34(1-185) (domain or fragment)
chain: MAGLGKPYTGHPGDAFEGLVQRIRLIVPSTLRGGDGEAGPYSPSSLPSRCAFQFHGHDGSDESFPIEYVLRLMNDWAEVPCNPYLRIQNTGVSVLFQGFFHRPHNAPGGAITPERTNVILGSTETTGLSLGDLDTIKGRLGLDARPMMASMWISCFVRMPRVQLAFRFMGPEDAGRTRRILCRAA
B2: binds [1]; binds [3].

B3: HSV-1 nuclear egress complex NEC220-DN (UL31 1-306 with UL34 1-220 D35A/E37A) (complex)
chain 1: T2 sequence
chain 2: B1 chain with D35A, E37A
B3: binds (cross-linking).

B4: HSV-1 nuclear egress complex NEC220 (UL31 1-306 with UL34 1-220) (complex)
chain 1: T2 sequence
chain 2: B1 chain
With B4 the “stoichiometry N” value (cryo-EM structure) was 6.
